Among the data in the Immune Epitope Database (IEDB) are Kd values, retold here.

pKd: −log10 of the molar value. Some results are limits rather than exact numbers.

The target of one test is HLA-B*44:02. Kind of test: IEDB peptide-MHC binding, purified MHC/competitive/radioactivity; filed as Kd, often an IC50 or EC50 that approximates it; ≥ and ≤ were set here for values at or beyond the usual limits of such assays.
Another test concerns the target HLA-B*46:01. Kind of test: IEDB peptide-MHC binding, purified MHC/direct/fluorescence; filed as Kd, often an IC50 or EC50 that approximates it; ≥ and ≤ were set here for values at or beyond the usual limits of such assays. The conditions noted are these: source organism: Yellow fever virus.
The target of the next test is HLA-A*30:01. Kind of test: IEDB peptide-MHC binding, purified MHC/competitive/radioactivity; filed as Kd, often an IC50 or EC50 that approximates it; ≥ and ≤ were set here for values at or beyond the usual limits of such assays.
The next test deals with HLA-A*29:02. The test is described as above.
Test [1] addresses HLA-A*01:01. The test is described as above.
Another test addresses HLA-A*30:02. The test is described as above.
Test [2] has as its target HLA-A*26:01. Described as above.
For a further test, the target named is HLA-A*32:01. Described as above.
The next test deals with HLA-A*68:02. The description is as above.
Test [3] concerns the target HLA-A*26:01. Kind of test: IEDB peptide-MHC binding, purified MHC/direct/fluorescence; filed as Kd, often an IC50 or EC50 that approximates it; ≥ and ≤ were set here for values at or beyond the usual limits of such assays.
Another test addresses HLA-B*51:01. Kind of test: IEDB peptide-MHC binding, purified MHC/competitive/radioactivity; filed as Kd, often an IC50 or EC50 that approximates it; ≥ and ≤ were set here for values at or beyond the usual limits of such assays.
The target of the next test is HLA-A*02:06. Described as above.
Another test has as its target HLA-A*02:03. The description is as above. Particulars: source organism: Mammarenavirus whitewaterense.
A further test deals with HLA-A*02:02. The test is described as above. The conditions noted are these: source organism: Mammarenavirus whitewaterense.
In another test the target is HLA-B*27:05. Kind of test: IEDB peptide-MHC binding, purified MHC/direct/fluorescence; filed as Kd, often an IC50 or EC50 that approximates it; ≥ and ≤ were set here for values at or beyond the usual limits of such assays. The conditions noted are these: source organism: Pseudomonas tolaasii.
The target of a further test is HLA-A*03:01. The test is described as above. Particulars: source organism: Pseudomonas tolaasii.
A further test concerns the target HLA-A*11:01. The test is described as above. Particulars: source organism: Pseudomonas tolaasii.
In the next test the target is HLA-A*02:01. The test is described as above. The conditions noted are these: source organism: Pseudomonas tolaasii.
A further test addresses HLA-A*69:01. The test is described as above. The conditions noted are these: source organism: Pseudomonas tolaasii.
In another test the target is HLA-B*08:01. The description is as above. The conditions noted are these: source organism: Pseudomonas tolaasii.
The next test has as its target HLA-B*15:01. The test is described as above. Particulars: source organism: Pseudomonas tolaasii.
Another test addresses HLA-A*31:01. Described as above. The conditions noted are these: source organism: Pseudomonas tolaasii.
In test [4] the target is HLA-A*01:01. The test is described as above. The conditions noted are these: source organism: Pseudomonas tolaasii.
The target of the next test is HLA-B*58:01. Described as above. The conditions noted are these: source organism: Pseudomonas tolaasii.
The target of test [5] is HLA-B*40:01. The description is as above. The conditions noted are these: source organism: Pseudomonas fluorescens.
The target of a further test is HLA-B*07:02. The test is described as above. Particulars: source organism: Pseudomonas tolaasii.
For test [6], the target named is HLA-B*40:01. Kind of test: IEDB peptide-MHC binding, purified MHC/competitive/radioactivity; filed as Kd, often an IC50 or EC50 that approximates it; ≥ and ≤ were set here for values at or beyond the usual limits of such assays.
Setting [7] is: source organism: Dengue virus 4 Philippines/H241/1956.
Where [8] appears, read: source organism: Lymphocytic choriomeningitis virus (strain Armstrong).
Where [9] appears, read: source organism: Dengue virus 2 Jamaica/1409/1983.
Where [10] appears, read: source organism: Mammarenavirus juninense.
The mark [11] stands for this setting: source organism: Lymphocytic choriomeningitis virus (strain WE).
Setting [12] is: source organism: Mammarenavirus whitewaterense.
The mark [13] stands for this setting: source organism: Dengue virus 3 Sri Lanka/1266/2000.

One may read the pKd as the Kd on a negative log10 scale, so that one unit is a factor of ten. As for AICSAVPTEW, the negative logarithm of the Kd (pKd) with HLA-B*44:02 (setting [7]) was 6.13.
RTWHYCGSY gave a pKd with HLA-B*46:01 of at most 4.70.
With LQFGFGWFSY, the pKd with HLA-A*30:01 (setting [8]) was 5.28; with HLA-A*29:02 (setting [8]), 7.71; with HLA-A*01:01 [1] (setting [8]), at most 4.15; with HLA-A*30:02 (setting [8]) it was 8.30; with HLA-A*26:01 [2] (setting [8]), 6.33; in the test with HLA-A*32:01 (setting [8]), 8.14.
Take SEVSNVQRI: the negative logarithm of the Kd (pKd) with HLA-B*44:02 (source organism: Lymphocytic choriomeningitis virus (strain Armstrong) (clone 53b)) was 7.92.
Turning to LTAIANQATV, the pKd in the test with HLA-A*68:02 (setting [9]) was 7.73.
As for NTSMAMTCI, in the test with HLA-A*68:02 (setting [7]), the negative logarithm of the Kd (pKd) is 6.62.
With DFIGFGAAY, the negative logarithm of the Kd (pKd) with HLA-A*26:01 [3] (source organism: Mycobacterium tuberculosis variant bovis) was 8.49.
As for GVLEEQGSFY, the pKd with HLA-A*30:01 (setting [10]) is at most 4.40; in the test with HLA-A*29:02 (setting [10]) it was 5.99; with HLA-A*01:01 [1] (setting [10]), 5.79; with HLA-A*30:02 (setting [10]) it was 6.61; with HLA-A*26:01 [2] (setting [10]), 6.65; with HLA-A*32:01 (setting [10]), at most 4.16.
On to FSRGNSLSGV, for which the negative-log Kd (pKd) in the test with HLA-B*51:01 (setting [9]) was 4.95.
For FDLCEGTTVV, the negative-log Kd (pKd) with HLA-B*51:01 (source organism: Dengue virus 1 Brazil/97-11/1997) is 4.98.
Turning to FSLGVLGMAL, the pKd with HLA-B*51:01 (setting [9]) is 5.41; with HLA-A*02:06 (setting [9]), 8.46.
Consider LTDNDDILM, for which the negative logarithm of the Kd (pKd) is 4.72 with HLA-A*30:01 (setting [11]); 5.04 with HLA-A*29:02 (setting [11]); 7.67 with HLA-A*01:01 [1] (setting [11]); 6.23 in the test with HLA-A*30:02 (setting [11]); at most 4.32 in the test with HLA-A*26:01 [2] (setting [11]); 4.90 in the test with HLA-A*32:01 (setting [11]).
As for ALNIALIAV, the pKd with HLA-A*68:02 (setting [12]) was 5.51; with HLA-A*02:06 (setting [12]), 7.00; in the test with HLA-A*02:03, 9.65; with HLA-A*02:02, 9.16.
FGRAKGSRAI: in the test with HLA-B*51:01 (setting [7]), the pKd was 4.84.
In the case of AEGTGITHL, the pKd with HLA-B*27:05, in the test with HLA-A*03:01, in the test with HLA-A*11:01, in the test with HLA-A*02:01, with HLA-A*69:01 and with HLA-B*08:01 was at most 4.70 in each case. Besides, the pKd in the test with HLA-B*15:01 was at most 4.70; with HLA-A*31:01 it was at most 4.70; in the test with HLA-A*01:01 [4], at most 4.70; with HLA-B*58:01, at most 4.70; in the test with HLA-A*26:01 [3] (source organism: Pseudomonas tolaasii), at most 4.70; with HLA-B*40:01 [5], 7.26. For the same sequence, in the test with HLA-B*07:02, the pKd is at most 4.70.
As for TEVDRTEAK, the pKd with HLA-B*44:02 (source organism: Dengue virus 3 Martinique/1243/1999) was at most 4.68.
Take TEAKQPATL: the pKd with HLA-B*40:01 [6] (setting [9]) is 7.73.
With GTFHTMWHV, the values for the pKd in the test with HLA-A*68:02 (setting [9]) and in the test with HLA-A*02:06 (setting [9]) were 7.91 and 8.13, respectively.
For the sequence TAIANQATV, the pKd in the test with HLA-A*68:02 (setting [9]) was 8.00.
AMKAQFERDL: the negative-log Kd (pKd) with HLA-A*68:02 (source organism: Homo sapiens) is at most 4.22.
As for LEKKITQWL, the negative logarithm of the Kd (pKd) with HLA-B*44:02 (setting [13]) is 6.48; with HLA-B*40:01 [6] (setting [13]), 6.72.
